From patent US8765431B2, “Method for enzymatic production of decarboxylated polyketides and fatty acids” (The Regents of the University of Michigan, priority 2009, dated 2014) come the findings set out here.

Format in all cases: biochemical, Lyngbya majuscula
One assay has as its system CurM ST. In words: ST sulfonation of free acid and ACP-linked substrates (LC-MS, HPLC, FTICR-MS). To be noted: in the presence of ST and PAPS. The procedure:
Based on the known mechanism of ST enzyme function, CurM ST was predicted to bind to PAPS, and transfer a sulfonate moiety to the β-hydroxyl group of the intermediate tethered to or released from CurM ACP (FIG. 1B). First, the ST substrate was identified by testing the sulfonation of 1 and 1-ACP. The sulfonation of 1 was analyzed by LC-MS, and that of 1-ACP was examined by HPLC and FTICR-MS. […] Likewise, the stereoselectivity of ST for the β-hydroxyl group was determined by comparing the sulfonation efficiency of (3S)-1-ACP and (3R)-1-ACP. Under the same reaction condition, ST sulfonation with (3R)-1-ACP was about 2.5-fold faster than with (3S)-1-ACP (FIG. 6). Thus, CurM ST stereoselectivity is consistent with the predicted formation of a (R)-β-hydroxyl group by CurM KR.
The ST and TE assays were performed using R)-1-ACP and (3S)-1-ACP substrates. Typically, for the ST reactions, about 300 μM ACP-linked substrate was added with 2 μM ST and 2 mM PAPS in 50 mM Tris-HCl buffer (pH 7.0). For the TE reactions, about 300 μM ACP-linked substrate was added with 2 μM TE in 50 mM Tris-HCl buffer (pH 7.0). All the reactions were incubated at room temperature, quenched by addition of 10% formic acid, and analyzed by reverse-phase HPLC using Jupiter C4 column. The ACP fractions were collected, lyophilized and analyzed by FTICR-MS and IRMPD. […]

For the next assay, the system named is CurM TE. The assay is described as follows: Steady-state kinetic analysis of TE hydrolysis using CoA-linked substrates. To be noted: steady-state kinetics. The protocol:
(3S)-1-ACP and (3R)-1-ACP were prepared as the TE substrates to test its stereoselectivity for the β-hydroxyl group. The reactions were analyzed by reverse-phase HPLC, and the separated ACP fractions were examined by Fourier transform ion cyclotron resonance mass spectrometry (FTICR-MS) and infrared multiphoton dissociation (IRMPD) (16) techniques. In addition, the chain-release products were detected by LC-MS and confirmed by co-injection with authentic standards. […] However, TE-catalyzed hydrolysis of (3S)-1-ACP was about 5-fold faster than with (3R)-1-ACP (FIG. 5A). […] However, based on bioinformatic analysis of PKS ketoreductase (KR) sequences (17), the CurM KR was predicted to reduce the β-keto to a (R)-β-hydroxyl group in the full-length chain intermediate.
HPLC-based analyses of the TE hydrolysis were performed using XBridge C18 column (4.6×250 mm, 5 μm, Waters) on the Gold HPLC system equipped with an autosampler and controlled by 32 Karat software (Beckman Coulter). Samples were eluted with a linear gradient from 10% to 90% of MeOH/H2O (10 mM CH3CO2NH4). For steady state kinetic studies. TE hydrolysis was examined in 40 μl 50 mM Tris-HCl buffer (pH 7.0) with 100 μM, 200 μM, 500 μM, 1000 μM and 2000 μM (3R)-1-CoA or (3S)-1-CoA. […] The TE hydrolysis reaction was measured by consumption of CoA substrates. […]

In assay [1] the test system is ACP with the sulfated substrate. In words: TE point mutant activity assay (liberation of holo ACP, HPLC). To be noted: for Activity compared to wild type: 1 min; for % Activity: relative to wild type CurM TE and free hydrolysis without enzyme, quenched after 1 min. The protocol:
The activity of these mutants was tested using the same assay described previously (28). A one-pot reaction was used where CurM ACP was loaded with a synthesized substrate mimic (FIG. 1B) using Svp, after which CurM ST sulfates the β-hydroxyl. Lastly, CurM TE was added and the reaction is quenched after 1 minute. The liberation of holo ACP was detected by a shift on the HPLC. The ratio of holo ACP to ACP with the sulfated substrate was measured. Mutant activity was compared to the activity of wild type CurM TE and free hydrolysis without enzyme in order to obtain percent activity for the mutants (Table 3).
TE activity was assayed using a modification of the protocol developed by Gu et. al. (28). To generate the sulfated substrate for the TE assay, 225 μM loaded ACP was incubated with 5 μM ST, 1.75 mM PAPS (Sigma), in 100 mM Tris pH 7.9 at room temperature for 10 min. Four μM TE was then added to the mixture and the reaction was quenched with 10% formic acid after 1 min. The samples were analyzed by reverse phase HPLC using a Jupiter C4 column (250×2.0 mm, 5 μm, 300 Å, Phenomenex) and a linear elution gradient from 30% to 90% CH3CN (0.1% CF3CO2H)/H2O (0.1% CF3CO2H) over 45 min.

In the case of `CCCCCCCCCC(CC(O)CC(=O)O)OC` (centres unmarked) [compound 1], the “Substrate conversion by ST” value in the assay on CurM ST is given as “No substrate conversion”.
Consider `CCCCCCCCCC(C[C@H](O)CC(=O)O)OC` (mixture of isomers) [(3S)-1, (3S,5RS)-3-Hydroxy-5-methoxytetradecanoic acid], for which, in the assay with CurM TE, the “Substrate preference of TE” value is recorded as “preferred substrate”.

B1: H266R: CurM TE control mutation in the catalytic triad (protein)
chain: MEEKFLEFGGNQICLCSWGSPEHPVVLCIHGILEQGLAWQEVALPLAAQGYRVVAPDLFGHGRSSHLEMVTSYSSLTFLAQIDRVIQELPDQPLLLVGHSMGAMLATAIASVRPKKIKELILVELPLPAEESKKESAVNQLTTCLDYLSSTPQHPIFPDVATAASRLRQAIPSLSEEFSYILAQRITQPNQGGVRWSWDAIIRTRSILGLNNLPGGRSQYLEMLKSIQVPTTLVYGDSSKLNRPEDLQQQKMTMTQAKRVFLSGGRNLHIDAAAALASLILTS
Consider B1, for which, in assay [1], the “Activity compared to wild type” value is 1 % of WT and the “% Activity” value turned out to be 1.4 ± 0.2%.

B2: N211A: CurM TE mutant of conserved Asn interacting with R205 (protein)
chain: MEEKFLEFGGNQICLCSWGSPEHPVVLCIHGILEQGLAWQEVALPLAAQGYRVVAPDLFGHGRSSHLEMVTSYSSLTFLAQIDRVIQELPDQPLLLVGHSMGAMLATAIASVRPKKIKELILVELPLPAEESKKESAVNQLTTCLDYLSSTPQHPIFPDVATAASRLRQAIPSLSEEFSYILAQRITQPNQGGVRWSWDAIIRTRSILGLANLPGGRSQYLEMLKSIQVPTTLVYGDSSKLNRPEDLQQQKMTMTQAKRVFLSGGHNLHIDAAAALASLILTS
B2: in assay [1], the “Activity compared to wild type” value is recorded as “catalytic activity, but at a reduced rate” and the “% Activity” value worked out at 54.7 ± 1.8%.

B3: R205E: CurM TE point mutant R205E (protein)
chain: MEEKFLEFGGNQICLCSWGSPEHPVVLCIHGILEQGLAWQEVALPLAAQGYRVVAPDLFGHGRSSHLEMVTSYSSLTFLAQIDRVIQELPDQPLLLVGHSMGAMLATAIASVRPKKIKELILVELPLPAEESKKESAVNQLTTCLDYLSSTPQHPIFPDVATAASRLRQAIPSLSEEFSYILAQRITQPNQGGVRWSWDAIIRTESILGLNNLPGGRSQYLEMLKSIQVPTTLVYGDSSKLNRPEDLQQQKMTMTQAKRVFLSGGHNLHIDAAAALASLILTS
With B3, the “% Activity” value in assay [1] worked out at 2.3 ± 2.1%.

B4: R205A: CurM TE point mutant R205A (protein)
chain: MEEKFLEFGGNQICLCSWGSPEHPVVLCIHGILEQGLAWQEVALPLAAQGYRVVAPDLFGHGRSSHLEMVTSYSSLTFLAQIDRVIQELPDQPLLLVGHSMGAMLATAIASVRPKKIKELILVELPLPAEESKKESAVNQLTTCLDYLSSTPQHPIFPDVATAASRLRQAIPSLSEEFSYILAQRITQPNQGGVRWSWDAIIRTASILGLNNLPGGRSQYLEMLKSIQVPTTLVYGDSSKLNRPEDLQQQKMTMTQAKRVFLSGGHNLHIDAAAALASLILTS
On to B4, for which the “% Activity” value in assay [1] was found to be 6.1 ± 3.1%.

B5: R205Q: CurM TE point mutant R205Q (protein)
chain: MEEKFLEFGGNQICLCSWGSPEHPVVLCIHGILEQGLAWQEVALPLAAQGYRVVAPDLFGHGRSSHLEMVTSYSSLTFLAQIDRVIQELPDQPLLLVGHSMGAMLATAIASVRPKKIKELILVELPLPAEESKKESAVNQLTTCLDYLSSTPQHPIFPDVATAASRLRQAIPSLSEEFSYILAQRITQPNQGGVRWSWDAIIRTQSILGLNNLPGGRSQYLEMLKSIQVPTTLVYGDSSKLNRPEDLQQQKMTMTQAKRVFLSGGHNLHIDAAAALASLILTS
Turning to B5, in assay [1], the “% Activity” value is given as 1.8 ± 0.3%.

B6: N267A: CurM TE mutant of conserved Asn next to the catalytic His (protein)
chain: MEEKFLEFGGNQICLCSWGSPEHPVVLCIHGILEQGLAWQEVALPLAAQGYRVVAPDLFGHGRSSHLEMVTSYSSLTFLAQIDRVIQELPDQPLLLVGHSMGAMLATAIASVRPKKIKELILVELPLPAEESKKESAVNQLTTCLDYLSSTPQHPIFPDVATAASRLRQAIPSLSEEFSYILAQRITQPNQGGVRWSWDAIIRTRSILGLNNLPGGRSQYLEMLKSIQVPTTLVYGDSSKLNRPEDLQQQKMTMTQAKRVFLSGGHALHIDAAAALASLILTS
Turning to B6, in assay [1], the “Activity compared to wild type” value is on record as “catalytic activity, but at a reduced rate” and the “% Activity” value is 38.4 ± 3.1%.
